Values quoted from earlier work in article PMC4254573.
pKd: −log10 of the molar value.

Legend:
sEGFR ECD (Homo sapiens) = sEGFR ECD (Homo sapiens) (UniProt P00533)
[1] = biological target: EGFR ECD (Drosophila melanogaster) (UniProt P04412)

pKd (sEGFR ECD (Homo sapiens)) | pKd [1] | Substance
6.00 |  | sEGFR ECD (from UniProt P00533)
 | 4.40 | EGFR ECD (from UniProt P04412)
